Measurements: the supplement of paper PMC9732359
± gives the uncertainty stated by the source.

Experiment: protein stability index of a GFP-peptide fusion (yeast GPS) (PSI 1-4); higher = more stable; sorted into four equal gates, so the index is relative within each strain
In short: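 Plasmids in a pooled yeast library fused tiled 17-residue yeast protein peptides downstream of GFP and also expressed Cherry. Mid-log cultures grown without leucine were sorted into four equal gates by GFP/Cherry fluorescence ratio. Each gate's plasmids were PCR-amplified and Illumina-sequenced, and reads were matched to strains by barcodes. The protein stability index is derived by multiplying each gate's read frequency by its gate number and summing the results.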

## VAHITTKSPAYPMMHQV [RGR1]
doa10∆
  protein stability index: 1.79 ± 0.046
pdr5∆
  protein stability index: 1.91 ± 0.054
san1∆
  protein stability index: 1.85 ± 0.067
ubr1∆
  protein stability index: 1.68 ± 0.068

## VAIGLNGKIWVKCEELS [RRP40]
doa10∆
  protein stability index: 1.58 ± 0.2
pdr5∆
  protein stability index: 2.25 ± 0.24
san1∆
  protein stability index: 2.94 ± 0.16
ubr1∆
  protein stability index: 1.73 ± 0.1

## VAKRRFEYSKYRPLTPS [RRP6]
doa10∆
  protein stability index: 3.27 ± 0.066
pdr5∆
  protein stability index: 3.28 ± 0.084
san1∆
  protein stability index: 3.15 ± 0.035
ubr1∆
  protein stability index: 2.96 ± 0.049

## VALTSFLGYKAGMTTIV [RPL3]
doa10∆
  protein stability index: 2.96 ± 0.11
pdr5∆
  protein stability index: 2.75 ± 0.077
san1∆
  protein stability index: 2.69 ± 0.078
ubr1∆
  protein stability index: 2.85 ± 0.094

## VAQPDSLRETNTTDPLG [SIR2]
doa10∆
  protein stability index: 3.09 ± 0.17
pdr5∆
  protein stability index: 3.45 ± 0.17
san1∆
  protein stability index: 2.41 ± 0.12
ubr1∆
  protein stability index: 3.08 ± 0.14

## VAQQQVQRQIEQQKGQQ [SNF5]
doa10∆
  protein stability index: 3.42 ± 0.079
pdr5∆
  protein stability index: 3.14 ± 0.1
san1∆
  protein stability index: 3.46 ± 0.075
ubr1∆
  protein stability index: 3.19 ± 0.089

## VDDVLETISAIEHPMTS [RPN1]
doa10∆
  protein stability index: 3.15 ± 0.13
pdr5∆
  protein stability index: 3.2 ± 0.091
san1∆
  protein stability index: 2.79 ± 0.16
ubr1∆
  protein stability index: 2.91 ± 0.083

## VDESLLSTLPAGKSLVS [QCR2]
doa10∆
  protein stability index: 2.65 ± 0.15
pdr5∆
  protein stability index: 2.81 ± 0.22
san1∆
  protein stability index: 1.85 ± 0.26
ubr1∆
  protein stability index: 2.41 ± 0.13

## VDFIKHSLSQAIKWDGS [PRE3]
doa10∆
  protein stability index: 1.75 ± 0.15
pdr5∆
  protein stability index: 2.29 ± 0.12
san1∆
  protein stability index: 1.61 ± 0.26
ubr1∆
  protein stability index: 2.48 ± 0.2

## VDIRVGKKSSSSTKDYL [RET1]
doa10∆
  protein stability index: 3.42 ± 0.29
pdr5∆
  protein stability index: 3.37 ± 0.12
san1∆
  protein stability index: 3.56 ± 0.13
ubr1∆
  protein stability index: 2.65 ± 0.18

## VDKGAIMKNKDFILSLL [YJL039C/NUP192]
doa10∆
  protein stability index: 2 ± 0.17
pdr5∆
  protein stability index: 1.81 ± 0.096
san1∆
  protein stability index: 1.95 ± 0.11
ubr1∆
  protein stability index: 1.96 ± 0.069

## VDKSRKVAHTSYKRIYG [PRE8]
doa10∆
  protein stability index: 3.31 ± 0.11
pdr5∆
  protein stability index: 3.13 ± 0.13
san1∆
  protein stability index: 3.28 ± 0.17
ubr1∆
  protein stability index: 3.13 ± 0.093

## VDNTVPSTTLFNFGGKS [YOR098C/NUP1]
doa10∆
  protein stability index: 1.75 ± 0.047
pdr5∆
  protein stability index: 2.07 ± 0.049
san1∆
  protein stability index: 2.28 ± 0.058
ubr1∆
  protein stability index: 2.38 ± 0.033

## VDPFTRKEWFDIKAPST [RPS1A]
doa10∆
  protein stability index: 2.38 ± 0.072
pdr5∆
  protein stability index: 2.57 ± 0.067
san1∆
  protein stability index: 2.55 ± 0.045
ubr1∆
  protein stability index: 2.89 ± 0.06

## VDSGEERNEQEREIMND [SWI3]
doa10∆
  protein stability index: 3.42 ± 0.069
pdr5∆
  protein stability index: 3.26 ± 0.064
san1∆
  protein stability index: 3.02 ± 0.079
ubr1∆
  protein stability index: 3.24 ± 0.11

## VDSKTKEPVDDKDVKAK [FAS2]
doa10∆
  protein stability index: 2.31 ± 0.24
san1∆
  protein stability index: 2.28 ± 0.13
ubr1∆
  protein stability index: 3.28 ± 0.16

## VDSTFQKVSENFEAVFE [SMC3]
doa10∆
  protein stability index: 3.32 ± 0.088
pdr5∆
  protein stability index: 3.38 ± 0.081
san1∆
  protein stability index: 3.42 ± 0.063
ubr1∆
  protein stability index: 3.09 ± 0.048

## VDVAIPCNNRGKHSIGL [RPS0A]
doa10∆
  protein stability index: 2.81 ± 0.096
pdr5∆
  protein stability index: 2.91 ± 0.1
san1∆
  protein stability index: 3.09 ± 0.067
ubr1∆
  protein stability index: 3.07 ± 0.11

## VEDFLERRLQTQVYKLG [RPS9A]
doa10∆
  protein stability index: 1.28 ± 0.071
pdr5∆
  protein stability index: 1.45 ± 0.095
san1∆
  protein stability index: 1.97 ± 0.27
ubr1∆
  protein stability index: 1.93 ± 0.18

## VEDYLSSVTSDSMKYTI [RPC82]
doa10∆
  protein stability index: 3.45 ± 0.22
pdr5∆
  protein stability index: 3.03 ± 0.083
san1∆
  protein stability index: 3.05 ± 0.14
ubr1∆
  protein stability index: 3.04 ± 0.093

## VEEIKLQKEKELHKEGT [SMC2]
pdr5∆
  protein stability index: 3.03 ± 0.12
san1∆
  protein stability index: 2.81 ± 0.095
ubr1∆
  protein stability index: 2.97 ± 0.096

## VEELMKKRRGSRIYKTI [SNU114]
doa10∆
  protein stability index: 1.86 ± 0.048
pdr5∆
  protein stability index: 1.75 ± 0.053
san1∆
  protein stability index: 1.62 ± 0.088
ubr1∆
  protein stability index: 1.83 ± 0.053

## VEENRVRYTTSVMPPNE [DLS1]
doa10∆
  protein stability index: 2.62 ± 0.055
pdr5∆
  protein stability index: 2.79 ± 0.051
san1∆
  protein stability index: 2.85 ± 0.048
ubr1∆
  protein stability index: 2.86 ± 0.055

## VEFCGYSIPHPSENLLN [RPC19]
doa10∆
  protein stability index: 2.7 ± 0.077
pdr5∆
  protein stability index: 3.05 ± 0.062
san1∆
  protein stability index: 2.92 ± 0.05
ubr1∆
  protein stability index: 2.95 ± 0.074

## VEFCRNINSTDKSIDTS [YML103C/NUP188]
doa10∆
  protein stability index: 3.08 ± 0.11
pdr5∆
  protein stability index: 2.93 ± 0.091
san1∆
  protein stability index: 3.39 ± 0.097
ubr1∆
  protein stability index: 3.12 ± 0.053

## VEIVNYNVENQQYVAAG [FAS1]
doa10∆
  protein stability index: 2.66 ± 0.17
pdr5∆
  protein stability index: 2.67 ± 0.18

## VEKTLLSDVAFYVQDVY [RPO31]
doa10∆
  protein stability index: 2.11 ± 0.22
pdr5∆
  protein stability index: 3.14 ± 0.23
ubr1∆
  protein stability index: 2.49 ± 0.15

## VEKVATAVLSTTARAKA [RPN2]
doa10∆
  protein stability index: 3 ± 0.12
pdr5∆
  protein stability index: 3.32 ± 0.086
san1∆
  protein stability index: 2.93 ± 0.13
ubr1∆
  protein stability index: 3.1 ± 0.081

## VEQYKFRETTHSKRELD [BRR2]
doa10∆
  protein stability index: 3.27 ± 0.072
pdr5∆
  protein stability index: 2.96 ± 0.059
san1∆
  protein stability index: 2.58 ± 0.054
ubr1∆
  protein stability index: 2.73 ± 0.054

## VETILSGKARICIVGGY [FAS2]
doa10∆
  protein stability index: 1.33 ± 0.24
pdr5∆
  protein stability index: 1.32 ± 0.17
san1∆
  protein stability index: 1.23 ± 0.16
ubr1∆
  protein stability index: 1.14 ± 0.13

## VEVLLVNYNSDMIKCFL [NUT1]
doa10∆
  protein stability index: 1.58 ± 0.1
pdr5∆
  protein stability index: 1.74 ± 0.077
san1∆
  protein stability index: 1.51 ± 0.17
ubr1∆
  protein stability index: 2.02 ± 0.13

## VFDLCWNSLMYALQSVK [RRP43]
doa10∆
  protein stability index: 2 ± 0.062
pdr5∆
  protein stability index: 2.02 ± 0.067
san1∆
  protein stability index: 2.04 ± 0.074
ubr1∆
  protein stability index: 1.99 ± 0.051

## VFDTAITSWYENHNKGK [QCR9]
doa10∆
  protein stability index: 2.49 ± 0.16
pdr5∆
  protein stability index: 2.96 ± 0.12
san1∆
  protein stability index: 2.65 ± 0.1
ubr1∆
  protein stability index: 2.15 ± 0.073

## VFIFPTSNWEIYKPLLF [SRB8]
doa10∆
  protein stability index: 2.15 ± 0.06
pdr5∆
  protein stability index: 2.6 ± 0.083
san1∆
  protein stability index: 2.84 ± 0.062
ubr1∆
  protein stability index: 2.74 ± 0.056

## VFIRHRTPHEIQEANSV [RIP1]
pdr5∆
  protein stability index: 2.24 ± 0.28
ubr1∆
  protein stability index: 1.69 ± 0.17

## VFNNGIVVLVPKFGVEG [DIS3]
doa10∆
  protein stability index: 2.22 ± 0.073
pdr5∆
  protein stability index: 2.24 ± 0.072
san1∆
  protein stability index: 2.27 ± 0.074
ubr1∆
  protein stability index: 2.32 ± 0.053

## VFQDNVYKIYNHVMPLK [SIN4]
doa10∆
  protein stability index: 1.65 ± 0.07
pdr5∆
  protein stability index: 1.69 ± 0.096
san1∆
  protein stability index: 1.69 ± 0.098
ubr1∆
  protein stability index: 1.62 ± 0.049

## VGKVMNKNQETAISVAK [RPT6]
pdr5∆
  protein stability index: 3.55 ± 0.21
san1∆
  protein stability index: 3.23 ± 0.082
ubr1∆
  protein stability index: 3.4 ± 0.11

## VGQLNKVVDQLFEKASV [RPN6]
doa10∆
  protein stability index: 2.5 ± 0.063
pdr5∆
  protein stability index: 2.51 ± 0.15
san1∆
  protein stability index: 2.77 ± 0.076
ubr1∆
  protein stability index: 2.5 ± 0.058

## VGRLASVVAKQLLNGQK [RPL16A]
pdr5∆
  protein stability index: 1.89 ± 0.3
san1∆
  protein stability index: 2.99 ± 0.13
ubr1∆
  protein stability index: 1.67 ± 0.2

## VGSEKVLQDLRLGSKKL [YJL039C/NUP192]
doa10∆
  protein stability index: 3.34 ± 0.13
san1∆
  protein stability index: 3.38 ± 0.13

## VGSLVVKSSMGPAFRLY [RPL1A]
doa10∆
  protein stability index: 3.07 ± 0.059
pdr5∆
  protein stability index: 2.95 ± 0.055
san1∆
  protein stability index: 3.14 ± 0.051
ubr1∆
  protein stability index: 2.73 ± 0.055

## VGVHIADVTHFVKPGTA [DIS3]
doa10∆
  protein stability index: 2.51 ± 0.055
pdr5∆
  protein stability index: 2.14 ± 0.058
san1∆
  protein stability index: 2.9 ± 0.052
ubr1∆
  protein stability index: 2.76 ± 0.063

## VGVIGPLHSGKTSLMDL [SNU114]
doa10∆
  protein stability index: 2.97 ± 0.11
pdr5∆
  protein stability index: 2.68 ± 0.11
san1∆
  protein stability index: 3.29 ± 0.19
ubr1∆
  protein stability index: 3.13 ± 0.07

## VGVSHTNEEVRNMAEEF [CYT1]
doa10∆
  protein stability index: 2.85 ± 0.13
pdr5∆
  protein stability index: 2.35 ± 0.07
san1∆
  protein stability index: 2.01 ± 0.13
ubr1∆
  protein stability index: 2.22 ± 0.043

## VHPGANYLLKRNEDARR [RPO31]
doa10∆
  protein stability index: 3.21 ± 0.067
pdr5∆
  protein stability index: 3.14 ± 0.077
san1∆
  protein stability index: 2.93 ± 0.077
ubr1∆
  protein stability index: 3.35 ± 0.038

## VHRITDEEASYKLGKVK [RPS4A]
doa10∆
  protein stability index: 3.01 ± 0.087
pdr5∆
  protein stability index: 3.13 ± 0.13
san1∆
  protein stability index: 2.98 ± 0.12
ubr1∆
  protein stability index: 3.07 ± 0.12

## VIANPKGEMKGSAITGP [RPL23A]
doa10∆
  protein stability index: 3.19 ± 0.13
pdr5∆
  protein stability index: 3.22 ± 0.2
san1∆
  protein stability index: 2.64 ± 0.14
ubr1∆
  protein stability index: 2.91 ± 0.23

## VIEMKRCFENLQNKSFK [UBP6]
doa10∆
  protein stability index: 3.33 ± 0.15
pdr5∆
  protein stability index: 3.28 ± 0.2
san1∆
  protein stability index: 3.1 ± 0.16
ubr1∆
  protein stability index: 3.13 ± 0.1

## VIGLDSEHDKKRLSAAL [YML103C/NUP188]
doa10∆
  protein stability index: 3.5 ± 0.23
pdr5∆
  protein stability index: 3.69 ± 0.19
san1∆
  protein stability index: 3.14 ± 0.13
ubr1∆
  protein stability index: 3.67 ± 0.14
